Experimental data reported in IntAct's records for PubMed 22001206.

B1: Dipeptidyl peptidase 4 (Homo sapiens), P27487 (parent)
chain: MKTPWKVLLGLLGAAALVTIITVPVVLLNKGTDDATADSRKTYTLTDYLKNTYRLKLYSLRWISDHEYLYKQENNILVFNAEYGNSSVFLENSTFDEFGHSINDYSISPDGQFILLEYNYVKQWRHSYTASYDIYDLNKRQLITEERIPNNTQWVTWSPVGHKLAYVWNNDIYVKIEPNLPSYRITWTGKEDIIYNGITDWVYEEEVFSAYSALWWSPNGTFLAYAQFNDTEVPLIEYSFYSDESLQYPKTVRVPYPKAGAVNPTVKFFVVNTDSLSSVTNATSIQITAPASMLIGDHYLCDVTWATQERISLQWLRRIQNYSVMDICDYDESSGRWNCLVARQHIEMSTTGWVGRFRPSEPHFTLDGNSFYKIISNEEGYRHICYFQIDKKDCTFITKGTWEVIGIEALTSDYLYYISNEYKGMPGGRNLYKIQLSDYTKVTCLSCELNPERCQYYSVSFSKEAKYYQLRCSGPGLPLYTLHSSVNDKGLRVLEDNSALDKMLQNVQMPSKKLDFIILNETKFWYQMILPPHFDKSKKYPLLLDVYAGPCSQKADTVFRLNWATYLASTENIIVASFDGRGSGYQGDKIMHAINRRLGTFEVEDQIEAARQFSKMGFVDNKRIAIWGWSYGGYVTSMVLGSGSGVFKCGIAVAPVSRWEYYDSVYTERYMGLPTPEDNLDHYRNSTVMSRAENFKQVEYLLIHGTADDNVHFQQSAQISKALVDVGVDFQAMWYTDEDHGIASSTAHQHIYTHMSHFIKQCFSLP
partner: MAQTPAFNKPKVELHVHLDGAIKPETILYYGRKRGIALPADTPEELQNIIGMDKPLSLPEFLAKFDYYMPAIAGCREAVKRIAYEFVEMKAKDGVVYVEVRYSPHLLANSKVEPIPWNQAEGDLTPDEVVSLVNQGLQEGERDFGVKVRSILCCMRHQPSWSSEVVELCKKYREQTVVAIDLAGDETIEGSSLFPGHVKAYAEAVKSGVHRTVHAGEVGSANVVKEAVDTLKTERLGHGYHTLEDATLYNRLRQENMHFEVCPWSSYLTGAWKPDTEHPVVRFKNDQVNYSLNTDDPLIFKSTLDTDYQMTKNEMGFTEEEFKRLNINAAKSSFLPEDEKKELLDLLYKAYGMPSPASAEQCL

Variants of: B1
Conditions: with ada_bovin ADA

Variant | effect of a mutation on the interaction
Y256A | decreasing interaction

Variants of: B1
Conditions: with ada_bovin ADA
Remark: another data set of the same source

Variant | effect of a mutation on the interaction
Y238A | decreasing interaction

Variants of: B1
Conditions: with ada_bovin ADA
Remark: another data set of the same source

Variant | effect of a mutation on the interaction
Y248A | decreasing interaction
